# In patent publication US20250346644A1 (LATTICON SUZHOU BIOPHARMACEUTICALS, published 2025):
# Molecular target: T1, hIL2-DM-his (human, UniProt P60568 21-153)
# T1 construct: expressed in ExpiCHO-S cells, nickel-column purified; also called hIL-2 mutein containing two point mutations K64G and N90R (with a his-tag); not shown: his-tag
# Test: BLI ForteBio, Ab on Protein A sensor
# T1 sequence (P60568 21-153 K84G/N110R): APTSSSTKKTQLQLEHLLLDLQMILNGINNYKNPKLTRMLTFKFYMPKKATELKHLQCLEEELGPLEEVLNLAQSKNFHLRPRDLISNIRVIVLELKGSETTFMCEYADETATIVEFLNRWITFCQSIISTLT
Kd,koff,kon,Binder
2.13 nM,0.000844 s⁻¹,397000 M⁻¹ s⁻¹,"K3G6 (antibody, V domains shown) VH: QVQLVQSGAEVKKPGATVKISCKVSGDTITAYYMHWVRQAPGQGLEWIGRIDPDDDSTKYAENFKGRVTITADTSTDTAYMELSSLRSEDTAVYYCTTITFYYSRELRWFAYWGQGTLVTVSS VL: DIVLTQSPATLSLSPGERATLSCQASQYIGNYLSWYQQKPGQAPRLLIYQATSLASGIPARFSGSRSGTDFTLTISSLEPEDFAVYYCLQHYSTPYTFGQGTKLEIK"
2.91 nM,0.00118 s⁻¹,407000 M⁻¹ s⁻¹,"K3G2 (antibody, V domains shown) VH: QVQLVQSGAEVKKPGATVKISCKVSGDTITAYYMHWVRQAPGQGLEWIGRIDPEDDSTKYAENFKGRVTITADTSTDTAYMELSSLRSEDTAVYYCTTITFYYSRELRWFAYWGQGTLVTVSS VL: DIVLTQSPATLSLSPGERATLSCQASQYIGNYLSWYQQKPGQAPRLLIYQATSLASGIPARFSGSRSGTDFTLTISSLEPEDFAVYYCLQHYSTPYTFGQGTKLEIK"
0.973 nM,0.000418 s⁻¹,429000 M⁻¹ s⁻¹,"K2G10 (antibody, V domains shown) VH: QVQLVQSGAEVKKPGATVKISCKVSGDTITAYYMHWVRQAPGQGLEWIGRIDPDDDSTKYAENFKGRVTITADTSTDTAYMELSSLRSEDTAVYYCTTITFYYTRELRWFAYWGQGTLVTVSS VL: DIVLTQSPATLSLSPGERATLSCQASQYISNYLSWYQQKPGQAPRLLIYSATSLASGIPARFSGSRSGTDFTLTISSLEPEDFAVYYCLQHYSTPYTFGQGTKLEIK"
1.96 nM,0.000656 s⁻¹,336000 M⁻¹ s⁻¹,"K3G7 (antibody, V domains shown) VH: QVQLVQSGAEVKKPGATVKISCKVSGDTITAYYMHWVRQAPGQGLEWIGRIDPEDDSTKYAENFKGRVTITADTSTDTAYMELSSLRSEDTAVYYCTTITFYYTRELRWFAYWGQGTLVTVSS VL: DIVLTQSPATLSLSPGERATLSCQASQYIGNYLSWYQQKPGQAPRLLIYQATSLASGIPARFSGSRSGTDFTLTISSLEPEDFAVYYCLQHYSTPYTFGQGTKLEIK"
1.33 nM,0.000593 s⁻¹,446000 M⁻¹ s⁻¹,"K2G6 (antibody, V domains shown) VH: QVQLVQSGAEVKKPGATVKISCKVSGDTITAYYMHWVRQAPGQGLEWIGRIDPDDDSTKYAENFKGRVTITADTSTDTAYMELSSLRSEDTAVYYCTTITFYYSRELRWFAYWGQGTLVTVSS VL: DIVLTQSPATLSLSPGERATLSCQASQYISNYLSWYQQKPGQAPRLLIYSATSLASGIPARFSGSRSGTDFTLTISSLEPEDFAVYYCLQHYSTPYTFGQGTKLEIK"
3.34 nM,0.00134 s⁻¹,400000 M⁻¹ s⁻¹,"K3G3 (antibody, V domains shown) VH: QVQLVQSGAEVKKPGATVKISCKVSGDTITAYYMHWVRQAPGQGLEWIGRIDPDDDSTKYAENFKGRVTITADTSTDTAYMELSSLRSEDTAVYYCTTVTFYYSRELRWFAYWGQGTLVTVSS VL: DIVLTQSPATLSLSPGERATLSCQASQYIGNYLSWYQQKPGQAPRLLIYQATSLASGIPARFSGSRSGTDFTLTISSLEPEDFAVYYCLQHYSTPYTFGQGTKLEIK"
1.13 nM,0.000507 s⁻¹,448000 M⁻¹ s⁻¹,"K2G8 (antibody, V domains shown) VH: QVQLVQSGAEVKKPGATVKISCKVSGDTITAYYMHWVRQAPGQGLEWIGRIDPEDDSTKYAENFKGRVTITADTSTDTAYMELSSLRSEDTAVYYCTTITFLYSRELRWFAYWGQGTLVTVSS VL: DIVLTQSPATLSLSPGERATLSCQASQYISNYLSWYQQKPGQAPRLLIYSATSLASGIPARFSGSRSGTDFTLTISSLEPEDFAVYYCLQHYSTPYTFGQGTKLEIK"
4.4 nM,0.00186 s⁻¹,424000 M⁻¹ s⁻¹,"K3G1 (antibody, V domains shown) VH: QVQLVQSGAEVKKPGATVKISCKVSGDTITAYYMHWVRQAPGQGLEWIGRIDPEDDSTKYAENFKGRVTITADTSTDTAYMELSSLRSEDTAVYYCTTVTFYYSRELRWFAYWGQGTLVTVSS VL: DIVLTQSPATLSLSPGERATLSCQASQYIGNYLSWYQQKPGQAPRLLIYQATSLASGIPARFSGSRSGTDFTLTISSLEPEDFAVYYCLQHYSTPYTFGQGTKLEIK"
3.72 nM,0.00124 s⁻¹,334000 M⁻¹ s⁻¹,"K3G5 (antibody, V domains shown) VH: QVQLVQSGAEVKKPGATVKISCKVSGDTITAYYMHWVRQAPGQGLEWIGRIDPEDDSTKYAENFKGRVTITADTSTDTAYMELSSLRSEDTAVYYCTTVTFYYTRELRWFAYWGQGTLVTVSS VL: DIVLTQSPATLSLSPGERATLSCQASQYIGNYLSWYQQKPGQAPRLLIYQATSLASGIPARFSGSRSGTDFTLTISSLEPEDFAVYYCLQHYSTPYTFGQGTKLEIK"
3 nM,0.00122 s⁻¹,408000 M⁻¹ s⁻¹,"K3G4 (antibody, V domains shown) VH: QVQLVQSGAEVKKPGATVKISCKVSGDTITAYYMHWVRQAPGQGLEWIGRIDPEDDSTKYAENFKGRVTITADTSTDTAYMELSSLRSEDTAVYYCTTVTFLYSRELRWFAYWGQGTLVTVSS VL: DIVLTQSPATLSLSPGERATLSCQASQYIGNYLSWYQQKPGQAPRLLIYQATSLASGIPARFSGSRSGTDFTLTISSLEPEDFAVYYCLQHYSTPYTFGQGTKLEIK"
1.35 nM,0.000489 s⁻¹,361000 M⁻¹ s⁻¹,"K2G7 (antibody, V domains shown) VH: QVQLVQSGAEVKKPGATVKISCKVSGDTITAYYMHWVRQAPGQGLEWIGRIDPEDDSTKYAENFKGRVTITADTSTDTAYMELSSLRSEDTAVYYCTTITFYYTRELRWFAYWGQGTLVTVSS VL: DIVLTQSPATLSLSPGERATLSCQASQYISNYLSWYQQKPGQAPRLLIYSATSLASGIPARFSGSRSGTDFTLTISSLEPEDFAVYYCLQHYSTPYTFGQGTKLEIK"

# More lines, now with the values behind:
Binder,Kd,koff,kon
"K1G1 (antibody, V domains shown) VH: QVQLVQSGAEVKKPGATVKISCKVSGDTITAYYMHWVRQAPGQGLEWIGRIDPEDDSTKYAENFKGRVTITADTSTDTAYMELSSLRSEDTAVYYCTTVTFYYSRELRWFAYWGQGTLVTVSS VL: DIVLTQSPATLSLSPGERATLSCQASQYISNYLSWYQQKPGQAPRLLIYQATSLASGIPARFSGSRSGTDFTLTISSLEPEDFAVYYCLQHYSTPYTFGQGTKLEIK",1.43 nM,0.000491 s⁻¹,343000 M⁻¹ s⁻¹
"K1G8 (antibody, V domains shown) VH: QVQLVQSGAEVKKPGATVKISCKVSGDTITAYYMHWVRQAPGQGLEWIGRIDPEDDSTKYAENFKGRVTITADTSTDTAYMELSSLRSEDTAVYYCTTITFLYSRELRWFAYWGQGTLVTVSS VL: DIVLTQSPATLSLSPGERATLSCQASQYISNYLSWYQQKPGQAPRLLIYQATSLASGIPARFSGSRSGTDFTLTISSLEPEDFAVYYCLQHYSTPYTFGQGTKLEIK",0.778 nM,0.000291 s⁻¹,374000 M⁻¹ s⁻¹
"K1G9 (antibody, V domains shown) VH: QVQLVQSGAEVKKPGATVKISCKVSGDTITAYYMHWVRQAPGQGLEWIGRIDPEDDSTKYAENFKGRVTITADTSTDTAYMELSSLRSEDTAVYYCTTITFLYTRELRWFAYWGQGTLVTVSS VL: DIVLTQSPATLSLSPGERATLSCQASQYISNYLSWYQQKPGQAPRLLIYQATSLASGIPARFSGSRSGTDFTLTISSLEPEDFAVYYCLQHYSTPYTFGQGTKLEIK",0.856 nM,0.000285 s⁻¹,333000 M⁻¹ s⁻¹
"K1G11 (antibody, V domains shown) VH: QVQLVQSGAEVKKPGATVKISCKVSGDTITAYYMHWVRQAPGQGLEWIGRIDPDDDSTKYAENFKGRVTITADTSTDTAYMELSSLRSEDTAVYYCTTITFLYSRELRWFAYWGQGTLVTVSS VL: DIVLTQSPATLSLSPGERATLSCQASQYISNYLSWYQQKPGQAPRLLIYQATSLASGIPARFSGSRSGTDFTLTISSLEPEDFAVYYCLQHYSTPYTFGQGTKLEIK",0.928 nM,0.000373 s⁻¹,401000 M⁻¹ s⁻¹
"K2G2 (antibody, V domains shown) VH: QVQLVQSGAEVKKPGATVKISCKVSGDTITAYYMHWVRQAPGQGLEWIGRIDPEDDSTKYAENFKGRVTITADTSTDTAYMELSSLRSEDTAVYYCTTITFYYSRELRWFAYWGQGTLVTVSS VL: DIVLTQSPATLSLSPGERATLSCQASQYISNYLSWYQQKPGQAPRLLIYSATSLASGIPARFSGSRSGTDFTLTISSLEPEDFAVYYCLQHYSTPYTFGQGTKLEIK",1.33 nM,0.000562 s⁻¹,424000 M⁻¹ s⁻¹
"K2G3 (antibody, V domains shown) VH: QVQLVQSGAEVKKPGATVKISCKVSGDTITAYYMHWVRQAPGQGLEWIGRIDPDDDSTKYAENFKGRVTITADTSTDTAYMELSSLRSEDTAVYYCTTVTFYYSRELRWFAYWGQGTLVTVSS VL: DIVLTQSPATLSLSPGERATLSCQASQYISNYLSWYQQKPGQAPRLLIYSATSLASGIPARFSGSRSGTDFTLTISSLEPEDFAVYYCLQHYSTPYTFGQGTKLEIK",1.32 nM,0.000512 s⁻¹,389000 M⁻¹ s⁻¹
"K2G4 (antibody, V domains shown) VH: QVQLVQSGAEVKKPGATVKISCKVSGDTITAYYMHWVRQAPGQGLEWIGRIDPEDDSTKYAENFKGRVTITADTSTDTAYMELSSLRSEDTAVYYCTTVTFLYSRELRWFAYWGQGTLVTVSS VL: DIVLTQSPATLSLSPGERATLSCQASQYISNYLSWYQQKPGQAPRLLIYSATSLASGIPARFSGSRSGTDFTLTISSLEPEDFAVYYCLQHYSTPYTFGQGTKLEIK",1.08 nM,0.000455 s⁻¹,421000 M⁻¹ s⁻¹
"K1G12 (antibody, V domains shown) VH: QVQLVQSGAEVKKPGATVKISCKVSGDTITAYYMHWVRQAPGQGLEWIGRIDPDDDSTKYAENFKGRVTITADTSTDTAYMELSSLRSEDTAVYYCTTITFLYTRELRWFAYWGQGTLVTVSS VL: DIVLTQSPATLSLSPGERATLSCQASQYISNYLSWYQQKPGQAPRLLIYQATSLASGIPARFSGSRSGTDFTLTISSLEPEDFAVYYCLQHYSTPYTFGQGTKLEIK",0.927 nM,0.000396 s⁻¹,428000 M⁻¹ s⁻¹
"K2G5 (antibody, V domains shown) VH: QVQLVQSGAEVKKPGATVKISCKVSGDTITAYYMHWVRQAPGQGLEWIGRIDPEDDSTKYAENFKGRVTITADTSTDTAYMELSSLRSEDTAVYYCTTVTFYYTRELRWFAYWGQGTLVTVSS VL: DIVLTQSPATLSLSPGERATLSCQASQYISNYLSWYQQKPGQAPRLLIYSATSLASGIPARFSGSRSGTDFTLTISSLEPEDFAVYYCLQHYSTPYTFGQGTKLEIK",1.4 nM,0.000553 s⁻¹,396000 M⁻¹ s⁻¹
